From article PMC7758880 (Molecular Cell, 2020)

T1: Smc6 with a triple StrepII tag (S. cerevisiae, UniProt Q12749 1-1114)
T1 sequence: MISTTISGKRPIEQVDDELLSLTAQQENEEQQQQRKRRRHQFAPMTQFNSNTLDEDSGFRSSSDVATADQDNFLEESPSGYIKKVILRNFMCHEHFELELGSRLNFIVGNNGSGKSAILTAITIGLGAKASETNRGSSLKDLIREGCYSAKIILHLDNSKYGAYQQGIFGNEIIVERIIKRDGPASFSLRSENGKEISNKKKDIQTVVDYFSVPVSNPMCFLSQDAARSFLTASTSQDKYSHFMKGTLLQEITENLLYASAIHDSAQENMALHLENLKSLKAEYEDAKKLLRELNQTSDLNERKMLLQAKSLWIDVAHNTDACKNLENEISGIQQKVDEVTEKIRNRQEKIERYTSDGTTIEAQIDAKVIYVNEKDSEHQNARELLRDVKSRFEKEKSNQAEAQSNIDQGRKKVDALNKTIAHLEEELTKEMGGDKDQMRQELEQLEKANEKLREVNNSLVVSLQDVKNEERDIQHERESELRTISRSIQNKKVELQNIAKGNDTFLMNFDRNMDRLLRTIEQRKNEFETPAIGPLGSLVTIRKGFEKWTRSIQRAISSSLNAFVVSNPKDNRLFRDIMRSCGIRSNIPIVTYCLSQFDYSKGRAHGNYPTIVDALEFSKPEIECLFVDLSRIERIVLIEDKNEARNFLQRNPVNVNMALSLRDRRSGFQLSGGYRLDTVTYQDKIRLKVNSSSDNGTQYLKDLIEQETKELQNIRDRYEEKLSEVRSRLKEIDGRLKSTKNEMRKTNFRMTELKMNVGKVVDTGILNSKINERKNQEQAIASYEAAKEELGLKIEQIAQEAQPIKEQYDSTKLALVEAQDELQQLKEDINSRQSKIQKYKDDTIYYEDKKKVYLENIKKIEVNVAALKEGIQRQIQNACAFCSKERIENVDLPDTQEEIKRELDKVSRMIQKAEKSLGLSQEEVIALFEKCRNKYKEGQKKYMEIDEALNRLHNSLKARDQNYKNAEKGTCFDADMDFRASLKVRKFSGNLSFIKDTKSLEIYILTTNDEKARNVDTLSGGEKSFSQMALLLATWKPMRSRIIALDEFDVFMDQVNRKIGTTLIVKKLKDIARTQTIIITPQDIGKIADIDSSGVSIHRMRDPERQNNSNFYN

B1: Nse4 with 8xHis and 3xHA tags (natural protein)
chain: MSSTVISRKRRNSTVTEPDSSGETRKQKKSRSDEKSSSSKDGDPQLEFKVLQGYRDLESEMHKGRAQVTRTGDIGVAMDNLNAVDSLFNKVIGIKNNGLFAHDARAMVSISELAQISVRNLKFDDSRSMVNLENIVNSLKRYMLKEHFKLNNIAENRNDLTLAADEQSAADQQEESDGDIDRTPDDNHTDKATSSFKATSMRHSYLQQFSHYNEFSQFNWFRIGALYNTISKNAPITDHLMGPLSIEKKPRVLTQRRRNNDQVGEKITAEKITQHSLNSTQQETTPEQVKKCFKKLSKKLGPEGSINLFKFIIDPNSFSRSIENLFYTSFLIKEGKLLMEHDEEGLPTIKIKQSISHTDSRSKEIERQRRRAAHQNHIIFQMDMPTWRKLIKKYNITSPFLD
B2: Smc5 (natural protein)
chain: MTSLIDLGRYVERTHHGEDTEPRSKRVKIAKPDLSSFQPGSIIKIRLQDFVTYTLTEFNLSPSLNMIIGPNGSGKSTFVCAVCLGLAGKPEYIGRSKKVEDFIKNGQDVSKIEITLKNSPNVTDIEYIDARDETIKITRIITRSKRRSDYLINDYQVSESVVKTLVAQLNIQLDNLCQFLSQERVEEFARLKSVKLLVETIRSIDASLLDVLDELRELQGNEQSLQKDLDFKKAKIVHLRQESDKLRKSVESLRDFQNKKGEIELHSQLLPYVKVKDHKEKLNIYKEEYERAKANLRAILKDKKPFANTKKTLENQVEELTEKCSLKTDEFLKAKEKINEIFEKLNTIRDEVIKKKNQNEYYRGRTKKLQATIISTKEDFLRSQEILAQTHLPEKSVFEDIDIKRKEIINKEGEIRDLISEIDAKANAINHEMRSIQRQAESKTKSLTTTDKIGILNQDQDLKEVRDAVLMVREHPEMKDKILEPPIMTVSAINAQFAAYLAQCVDYNTSKALTVVDSDSYKLFANPILDKFKVNLRELSSADTTPPVPAETVRDLGFEGYLSDFITGDKRVMKMLCQTSKIHTIPVSRRELTPAQIKKLITPRPNGKILFKRIIHGNRLVDIKQSAYGSKQVFPTDVSIKQTNFYQGSIMSNEQKIRIENEIINLKNEYNDRKSTLDALSNQKSGYRHELSELASKNDDINREAHQLNEIRKKYTMRKSTIETLREKLDQLKREARKDVSQKIKDIDDQIQQLLLKQRHLLSKMASSMKSLKNCQKELISTQILQFEAQNMDVSMNDVIGFFNEREADLKSQYEDKKKFVKEMRDTPEFQSWMREIRSYDQDTKEKLNKVAEKYEEEGNFNLSFVQDVLDKLESEIAMVNHDESAVTILDQVTAELRELEHTVPQQSKDLETIKAKLKEDHAVLEPKLDDIVSKISARFARLFNNVGSAGAVRLEKPKDYAEWKIEIMVKFRDNAPLKKLDSHTQSGGERAVSTVLYMIALQEFTSAPFRVVDEINQGMDSRNERIVHKAMVENACAENTSQYFLITPKLLTGLHYHEKMRIHCVMAGSWIPNPSEDPKMIHFGETSNYSFD

Key:
Smc5 = biological target: B2; experiment: cross-linking
[1] = biological target: B1; experiment: cross-linking
[2] = biological target: T1, Smc6 with a triple StrepII tag; experiment: cross-linking
[3] = biological target: T1, Smc6 with a triple StrepII tag; experiment: affinity purification with mass spectrometry

| Binder | binding result (Smc5) | binding result [1] | binding result [2] | binding result [3] |
| --- | --- | --- | --- | --- |
| Nse3 (natural protein) MSSIDNDSDVDLTEDLAVAKIVKENPVARKMVRYILSRGESQNSIITRNKLQSVIHEAAREENIAKPSFSKMFMDINAILYNVYGFELQGLPSKNNMNAGGNGSNSNTNKSMPEPLGHRAQKFILLNNVPHSKNFDDFKILQSAHTYEELIVTGEYIGDDIASGTSNTLESKLSTDRDLVYKGVLSVILCIVFFSKNNILHQELIKFLETFGIPSDGSKIAILNITIEDLIKSLEKREYIVRLEEKSDTDGEVISYRIGRRTQAELGLESLEKLVQEIMGLEKEQTKSLHDDIIKSIGDSYSI | binds | binds | binds | – |
| Nse2 (enzyme) MALNDNPIPKSVPLHPKSGKYFHNLHARDLSNIYQQCYKQIDETINQLVDSTSPSTIGIEEQVADITSTYKLLSTYESESNSFDEHIKDLKKNFKQSSDACPQIDLSTWDKYRTGELTAPKLSELYLNMPTPEPATMVNNTDTLKILKVLPYIWNDPTCVIPDLQNPADEDDLQIEGGKIELTCPITCKPYEAPLISRKCNHVFDRDGIQNYLQGYTTRDCPQAACSQVVSMRDFVRDPIMELRCKIAKMKESQEQDKRSSQAIDVL | binds | – | binds | – |
| B1 | binds | – | binds | – |
| B2 | – | – | – | binds |
| Nse5 (natural protein) MDGALINSVLYVSPRNGAHYFVELTEKHLLAFEMLNSMCLLENYDHVLLFLECQFGKSHNLAVIPFDIILVLFTLSTLSEYYKEPILRANDPYNTSRETLSRRALKLLQKYLAILKEFDSEQYNLYDLELLRCQFFLAIDTLTPKKQKWGFDRFRRTKSESGVTYRQNASVDPELDQAKTFKNPYRSYISCLEQRNTILGNRLLNLKLNEPGEFINMILWTLSNSLQESTPLFLSSHEIWMPLLEILIDLFSCRQDYFIQHEVAQNVSKSLFVQRLSESPLAVFFESLNTRNFANRFSEYVFLNCDYKLPSDNYATPVHPVYNGENTIVDTYIPTIKCSPLYKSQKSLALRRKLIGSCFKLLLRVPDGHRLITPRIVADDVIQGISRTLASFNDILQFKKFFMTENLSQESYFIPLLAEGTLSEILKDTQECVVILTLVENLSDGVSFCNEVIGLVKSKCFAFTEQCSQASYEEAVLNIEKCDVCLLVLLRYLLHLIGTEAILDAKEQLEMLHAIEKNDSGRRQWAKALNLGNDPPLLYPIVSQMFGVHDKSVIIE | binds | – | binds | – |
| Nse1 (natural protein) MEVHEEQVSAPVTGDATAKYLLQYILSARGICHENALILALMRLETDASTLNTEWSIQQWVDKLNDYINAINVKLNLLGYKIIRINHGIGRNAVTLKAKQNFESFEDNTAIRAHNNDYAVLQSIVLPESNRFFVYVNLASTEETKLATRFNQNEIEFMKWAIEQFMISGETIVEGPALETSIIVKEVNRILVAATGDSNLAKWRKFSTFTVGSTNLFQFQELTATDIEDLLLRLCELKWFYRTQEGKFGIDLRCIAELEEYLTSMYNLNTCQNCHKLAIQGVRCGNESCREENEETGENSLSQIWHVDCFKHYITHVSKNCDRCGSSLITEGVYVI | binds | – | binds | – |
